The labels stand for the following.
B1: A105 (antibody, human IgG1, kappa, L234A L235A)
light: DIVMTQTPLSLSVSLGDQASISCKSSQSIVHYNGNTYLEWYLQKPGQSPQLLIYKVSSRASGVPDRFSGSGSGTDFTLKISRVEAEDLGVYYCFQGSHFPLTFGQGTKLEIKRTVAAPSVFIFPPSDEQLKSGTASVVCLLNNFYPREAKVQWKVDNALQSGNSQESVTEQDSKDSTYSLSSTLTLSKADYEKHKVYACEVTHQGLSSPVTKSFNRGEC
heavy: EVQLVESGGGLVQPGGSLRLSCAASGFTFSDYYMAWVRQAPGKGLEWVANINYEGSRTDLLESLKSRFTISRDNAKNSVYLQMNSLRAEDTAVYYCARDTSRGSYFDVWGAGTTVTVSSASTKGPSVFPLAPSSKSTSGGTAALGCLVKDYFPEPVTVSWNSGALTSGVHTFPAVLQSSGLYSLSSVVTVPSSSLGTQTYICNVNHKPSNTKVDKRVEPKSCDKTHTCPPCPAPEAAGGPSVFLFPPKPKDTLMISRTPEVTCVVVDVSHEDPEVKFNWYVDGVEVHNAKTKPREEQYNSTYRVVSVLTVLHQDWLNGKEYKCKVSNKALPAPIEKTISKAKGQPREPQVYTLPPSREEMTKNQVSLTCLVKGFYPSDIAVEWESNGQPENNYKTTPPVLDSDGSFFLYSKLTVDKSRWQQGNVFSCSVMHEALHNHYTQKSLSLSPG
B2: A106 (antibody, human IgG1, kappa, L234A L235A)
light: DIVMTQTPLSLSVSLGDQASISCKSSQSIVHYNGNTYLEWYLQKPGQSPQLLIYKVSSRASGVPDRFSGSGSGTDFTLKISRVEAEDLGVYYCFQGSHFPLTFGQGTKLEIKRTVAAPSVFIFPPSDEQLKSGTASVVCLLNNFYPREAKVQWKVDNALQSGNSQESVTEQDSKDSTYSLSSTLTLSKADYEKHKVYACEVTHQGLSSPVTKSFNRGEC
heavy: not shown
B3: A110 (antibody, human IgG1, kappa, L234A L235A)
light: DIVMTQTPLSLSVSLGDQASISCKSSQSIVHYNGNTYLEWYLQKPGQSPQLLIYKVSSRASGVPDRFSGSGSGTDFTLKISRVEAEDLGVYYCFQGSHFPLTFGQGTKLEIKRTVAAPSVFIFPPSDEQLKSGTASVVCLLNNFYPREAKVQWKVDNALQSGNSQESVTEQDSKDSTYSLSSTLTLSKADYEKHKVYACEVTHQGLSSPVTKSFNRGEC
heavy: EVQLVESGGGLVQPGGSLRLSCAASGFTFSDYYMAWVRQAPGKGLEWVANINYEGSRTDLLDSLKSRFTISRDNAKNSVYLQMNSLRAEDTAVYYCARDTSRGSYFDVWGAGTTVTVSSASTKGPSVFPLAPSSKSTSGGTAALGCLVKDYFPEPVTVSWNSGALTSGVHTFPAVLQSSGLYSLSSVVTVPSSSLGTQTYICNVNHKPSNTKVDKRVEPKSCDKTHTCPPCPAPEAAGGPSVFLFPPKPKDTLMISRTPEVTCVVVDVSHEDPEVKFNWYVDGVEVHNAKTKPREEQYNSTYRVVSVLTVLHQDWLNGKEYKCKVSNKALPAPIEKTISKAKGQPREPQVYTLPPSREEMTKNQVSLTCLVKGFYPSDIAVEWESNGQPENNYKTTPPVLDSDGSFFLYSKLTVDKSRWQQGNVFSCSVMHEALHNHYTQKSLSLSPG
B4: A107 (antibody, human IgG1, kappa, L234A L235A)
light: DIVMTQTPLSLSVSLGDQASISCKSSQSIVHYNGNTYLEWYLQKPGQSPQLLIYKVSSRASGVPDRFSGSGSGTDFTLKISRVEAEDLGVYYCFQGSHFPLTFGQGTKLEIKRTVAAPSVFIFPPSDEQLKSGTASVVCLLNNFYPREAKVQWKVDNALQSGNSQESVTEQDSKDSTYSLSSTLTLSKADYEKHKVYACEVTHQGLSSPVTKSFNRGEC
heavy: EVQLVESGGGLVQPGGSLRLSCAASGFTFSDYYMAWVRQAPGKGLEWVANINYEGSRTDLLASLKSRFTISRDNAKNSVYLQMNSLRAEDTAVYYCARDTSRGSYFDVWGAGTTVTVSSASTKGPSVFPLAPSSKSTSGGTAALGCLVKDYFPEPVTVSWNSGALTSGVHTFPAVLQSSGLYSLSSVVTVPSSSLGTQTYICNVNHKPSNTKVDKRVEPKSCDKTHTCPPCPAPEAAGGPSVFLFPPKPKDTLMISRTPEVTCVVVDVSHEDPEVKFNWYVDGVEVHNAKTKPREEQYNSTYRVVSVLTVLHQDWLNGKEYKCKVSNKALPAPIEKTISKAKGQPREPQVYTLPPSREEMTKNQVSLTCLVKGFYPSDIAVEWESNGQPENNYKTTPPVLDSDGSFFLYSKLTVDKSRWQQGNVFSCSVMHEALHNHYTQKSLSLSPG
B5: A118 (antibody, human IgG1, kappa, L234A L235A)
light: DIVMTQTPLSLSVSLGDQASISCKSSQSIVHYNEKTYLEWYLQKPGQSPQLLIYKVSSRASGVPDRFSGSGSGTDFTLKISRVEAEDLGVYYCFQGSHFPLTFGQGTKLEIKRTVAAPSVFIFPPSDEQLKSGTASVVCLLNNFYPREAKVQWKVDNALQSGNSQESVTEQDSKDSTYSLSSTLTLSKADYEKHKVYACEVTHQGLSSPVTKSFNRGEC
heavy: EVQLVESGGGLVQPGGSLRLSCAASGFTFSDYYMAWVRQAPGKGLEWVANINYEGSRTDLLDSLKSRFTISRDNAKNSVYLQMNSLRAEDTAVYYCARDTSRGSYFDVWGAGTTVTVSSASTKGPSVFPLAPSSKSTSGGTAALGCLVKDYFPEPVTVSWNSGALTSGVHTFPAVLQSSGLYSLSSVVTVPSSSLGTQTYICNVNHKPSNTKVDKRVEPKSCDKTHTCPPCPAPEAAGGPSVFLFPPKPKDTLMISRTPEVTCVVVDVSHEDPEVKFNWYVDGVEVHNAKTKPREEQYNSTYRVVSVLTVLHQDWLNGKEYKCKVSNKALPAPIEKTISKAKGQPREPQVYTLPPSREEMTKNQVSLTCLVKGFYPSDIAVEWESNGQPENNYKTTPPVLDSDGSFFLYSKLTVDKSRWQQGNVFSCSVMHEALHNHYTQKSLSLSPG
B6: A116 (antibody, human IgG1, kappa, L234A L235A)
light: DIVMTQTPLSLSVSLGDQASISCKSSQSIVHYNEKTYLEWYLQKPGQSPQLLIYKVSSRASGVPDRFSGSGSGTDFTLKISRVEAEDLGVYYCFQGSHFPLTFGQGTKLEIKRTVAAPSVFIFPPSDEQLKSGTASVVCLLNNFYPREAKVQWKVDNALQSGNSQESVTEQDSKDSTYSLSSTLTLSKADYEKHKVYACEVTHQGLSSPVTKSFNRGEC
heavy: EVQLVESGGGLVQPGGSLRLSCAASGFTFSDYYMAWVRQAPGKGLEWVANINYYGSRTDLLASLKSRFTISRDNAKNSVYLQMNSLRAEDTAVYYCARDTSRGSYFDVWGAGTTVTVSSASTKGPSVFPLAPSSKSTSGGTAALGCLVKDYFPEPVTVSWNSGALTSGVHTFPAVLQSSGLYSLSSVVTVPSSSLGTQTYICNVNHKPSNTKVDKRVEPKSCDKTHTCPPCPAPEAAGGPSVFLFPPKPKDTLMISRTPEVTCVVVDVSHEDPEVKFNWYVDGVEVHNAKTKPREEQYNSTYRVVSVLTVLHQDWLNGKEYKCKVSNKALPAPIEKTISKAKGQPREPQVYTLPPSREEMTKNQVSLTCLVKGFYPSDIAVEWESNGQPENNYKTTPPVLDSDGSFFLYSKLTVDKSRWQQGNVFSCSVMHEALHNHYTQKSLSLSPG
B7: A117 (antibody, human IgG1, kappa, L234A L235A)
light: DIVMTQTPLSLSVSLGDQASISCKSSQSIVHYNEKTYLEWYLQKPGQSPQLLIYKVSSRASGVPDRFSGSGSGTDFTLKISRVEAEDLGVYYCFQGSHFPLTFGQGTKLEIKRTVAAPSVFIFPPSDEQLKSGTASVVCLLNNFYPREAKVQWKVDNALQSGNSQESVTEQDSKDSTYSLSSTLTLSKADYEKHKVYACEVTHQGLSSPVTKSFNRGEC
heavy: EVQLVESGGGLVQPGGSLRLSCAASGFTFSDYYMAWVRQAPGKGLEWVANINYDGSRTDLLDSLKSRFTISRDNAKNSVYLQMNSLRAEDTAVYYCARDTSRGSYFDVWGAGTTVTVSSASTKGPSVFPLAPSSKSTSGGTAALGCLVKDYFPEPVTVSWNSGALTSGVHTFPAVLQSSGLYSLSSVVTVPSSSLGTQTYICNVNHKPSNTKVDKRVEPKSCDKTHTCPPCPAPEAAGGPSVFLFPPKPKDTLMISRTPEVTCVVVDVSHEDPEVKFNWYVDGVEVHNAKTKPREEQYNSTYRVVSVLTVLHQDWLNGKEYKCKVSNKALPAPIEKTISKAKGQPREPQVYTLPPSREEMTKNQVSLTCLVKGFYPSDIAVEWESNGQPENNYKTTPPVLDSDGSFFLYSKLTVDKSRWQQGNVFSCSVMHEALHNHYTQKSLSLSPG
B8: A109 (antibody, human IgG1, kappa, L234A L235A)
light: DIVMTQTPLSLSVSLGDQASISCKSSQSIVHYNGNTYLEWYLQKPGQSPQLLIYKVSSRASGVPDRFSGSGSGTDFTLKISRVEAEDLGVYYCFQGSHFPLTFGQGTKLEIKRTVAAPSVFIFPPSDEQLKSGTASVVCLLNNFYPREAKVQWKVDNALQSGNSQESVTEQDSKDSTYSLSSTLTLSKADYEKHKVYACEVTHQGLSSPVTKSFNRGEC
heavy: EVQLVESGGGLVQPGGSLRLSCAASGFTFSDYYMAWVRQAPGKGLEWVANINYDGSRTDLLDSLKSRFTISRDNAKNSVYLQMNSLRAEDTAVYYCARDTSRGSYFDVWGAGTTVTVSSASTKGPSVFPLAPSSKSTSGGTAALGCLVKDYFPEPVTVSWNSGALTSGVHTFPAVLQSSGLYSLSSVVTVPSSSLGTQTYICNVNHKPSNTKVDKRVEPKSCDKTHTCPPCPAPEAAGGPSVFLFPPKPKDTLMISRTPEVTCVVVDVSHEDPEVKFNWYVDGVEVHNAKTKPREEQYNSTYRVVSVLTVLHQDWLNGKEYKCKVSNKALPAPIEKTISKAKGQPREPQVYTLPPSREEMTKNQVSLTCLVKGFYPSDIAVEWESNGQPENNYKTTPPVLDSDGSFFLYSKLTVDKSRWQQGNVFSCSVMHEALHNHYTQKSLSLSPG
B9: A114 (antibody, human IgG1, kappa, L234A L235A)
light: DIVMTQTPLSLSVSLGDQASISCKSSQSIVHYNEKTYLEWYLQKPGQSPQLLIYKVSSRASGVPDRFSGSGSGTDFTLKISRVEAEDLGVYYCFQGSHFPLTFGQGTKLEIKRTVAAPSVFIFPPSDEQLKSGTASVVCLLNNFYPREAKVQWKVDNALQSGNSQESVTEQDSKDSTYSLSSTLTLSKADYEKHKVYACEVTHQGLSSPVTKSFNRGEC
heavy: not shown
B10: A113 (antibody, human IgG1, kappa, L234A L235A)
light: DIVMTQTPLSLSVSLGDQASISCKSSQSIVHYNEKTYLEWYLQKPGQSPQLLIYKVSSRASGVPDRFSGSGSGTDFTLKISRVEAEDLGVYYCFQGSHFPLTFGQGTKLEIKRTVAAPSVFIFPPSDEQLKSGTASVVCLLNNFYPREAKVQWKVDNALQSGNSQESVTEQDSKDSTYSLSSTLTLSKADYEKHKVYACEVTHQGLSSPVTKSFNRGEC
heavy: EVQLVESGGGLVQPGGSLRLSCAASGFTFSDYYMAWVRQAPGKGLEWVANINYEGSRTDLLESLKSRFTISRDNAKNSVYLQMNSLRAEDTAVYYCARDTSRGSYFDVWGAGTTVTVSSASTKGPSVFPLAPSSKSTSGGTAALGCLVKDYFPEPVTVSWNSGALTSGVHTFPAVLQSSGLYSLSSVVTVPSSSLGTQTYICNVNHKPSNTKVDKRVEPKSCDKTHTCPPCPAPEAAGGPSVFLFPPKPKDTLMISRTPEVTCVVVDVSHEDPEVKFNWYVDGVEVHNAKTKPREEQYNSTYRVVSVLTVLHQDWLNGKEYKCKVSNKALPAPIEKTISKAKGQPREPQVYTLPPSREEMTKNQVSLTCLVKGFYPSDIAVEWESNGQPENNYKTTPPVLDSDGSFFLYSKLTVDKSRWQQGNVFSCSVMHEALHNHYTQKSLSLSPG
B11: A108 (antibody, human IgG1, kappa, L234A L235A)
light: DIVMTQTPLSLSVSLGDQASISCKSSQSIVHYNGNTYLEWYLQKPGQSPQLLIYKVSSRASGVPDRFSGSGSGTDFTLKISRVEAEDLGVYYCFQGSHFPLTFGQGTKLEIKRTVAAPSVFIFPPSDEQLKSGTASVVCLLNNFYPREAKVQWKVDNALQSGNSQESVTEQDSKDSTYSLSSTLTLSKADYEKHKVYACEVTHQGLSSPVTKSFNRGEC
heavy: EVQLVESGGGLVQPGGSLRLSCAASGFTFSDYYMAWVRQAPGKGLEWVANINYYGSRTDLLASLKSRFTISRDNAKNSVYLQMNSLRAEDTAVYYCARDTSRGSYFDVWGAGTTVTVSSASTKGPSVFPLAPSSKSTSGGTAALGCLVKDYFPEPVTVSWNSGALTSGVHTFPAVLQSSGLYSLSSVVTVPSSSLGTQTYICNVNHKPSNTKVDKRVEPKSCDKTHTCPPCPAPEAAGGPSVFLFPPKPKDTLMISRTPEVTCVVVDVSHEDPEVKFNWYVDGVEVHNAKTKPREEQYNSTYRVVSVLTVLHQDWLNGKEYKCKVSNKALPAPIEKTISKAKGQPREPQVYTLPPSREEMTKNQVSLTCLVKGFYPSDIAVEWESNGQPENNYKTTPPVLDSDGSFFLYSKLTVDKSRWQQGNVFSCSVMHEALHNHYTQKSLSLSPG
B12: A111 (antibody, human IgG1, kappa, L234A L235A)
light: DIVMTQTPLSLSVSLGDQASISCKSSQSIVHYNGNTYLEWYLQKPGQSPQLLIYKVSSRASGVPDRFSGSGSGTDFTLKISRVEAEDLGVYYCFQGSHFPLTFGQGTKLEIKRTVAAPSVFIFPPSDEQLKSGTASVVCLLNNFYPREAKVQWKVDNALQSGNSQESVTEQDSKDSTYSLSSTLTLSKADYEKHKVYACEVTHQGLSSPVTKSFNRGEC
heavy: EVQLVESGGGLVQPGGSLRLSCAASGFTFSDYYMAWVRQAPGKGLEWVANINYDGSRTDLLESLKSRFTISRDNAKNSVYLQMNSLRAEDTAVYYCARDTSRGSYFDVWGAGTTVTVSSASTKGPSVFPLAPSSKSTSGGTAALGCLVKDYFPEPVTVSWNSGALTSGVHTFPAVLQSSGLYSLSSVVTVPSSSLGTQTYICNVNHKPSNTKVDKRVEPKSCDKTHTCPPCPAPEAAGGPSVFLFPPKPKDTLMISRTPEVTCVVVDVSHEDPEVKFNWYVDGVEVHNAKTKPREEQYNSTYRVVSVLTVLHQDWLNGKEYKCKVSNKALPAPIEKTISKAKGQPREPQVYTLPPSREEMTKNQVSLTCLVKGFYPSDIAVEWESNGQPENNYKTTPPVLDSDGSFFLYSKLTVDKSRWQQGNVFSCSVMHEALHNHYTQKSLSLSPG
B13: A112 (antibody, human IgG1, kappa, L234A L235A)
light: DIVMTQTPLSLSVSLGDQASISCKSSQSIVHYNGNTYLEWYLQKPGQSPQLLIYKVSSRASGVPDRFSGSGSGTDFTLKISRVEAEDLGVYYCFQGSHFPLTFGQGTKLEIKRTVAAPSVFIFPPSDEQLKSGTASVVCLLNNFYPREAKVQWKVDNALQSGNSQESVTEQDSKDSTYSLSSTLTLSKADYEKHKVYACEVTHQGLSSPVTKSFNRGEC
heavy: not shown
B14: A115 (antibody, human IgG1, kappa, L234A L235A)
light: DIVMTQTPLSLSVSLGDQASISCKSSQSIVHYNEKTYLEWYLQKPGQSPQLLIYKVSSRASGVPDRFSGSGSGTDFTLKISRVEAEDLGVYYCFQGSHFPLTFGQGTKLEIKRTVAAPSVFIFPPSDEQLKSGTASVVCLLNNFYPREAKVQWKVDNALQSGNSQESVTEQDSKDSTYSLSSTLTLSKADYEKHKVYACEVTHQGLSSPVTKSFNRGEC
heavy: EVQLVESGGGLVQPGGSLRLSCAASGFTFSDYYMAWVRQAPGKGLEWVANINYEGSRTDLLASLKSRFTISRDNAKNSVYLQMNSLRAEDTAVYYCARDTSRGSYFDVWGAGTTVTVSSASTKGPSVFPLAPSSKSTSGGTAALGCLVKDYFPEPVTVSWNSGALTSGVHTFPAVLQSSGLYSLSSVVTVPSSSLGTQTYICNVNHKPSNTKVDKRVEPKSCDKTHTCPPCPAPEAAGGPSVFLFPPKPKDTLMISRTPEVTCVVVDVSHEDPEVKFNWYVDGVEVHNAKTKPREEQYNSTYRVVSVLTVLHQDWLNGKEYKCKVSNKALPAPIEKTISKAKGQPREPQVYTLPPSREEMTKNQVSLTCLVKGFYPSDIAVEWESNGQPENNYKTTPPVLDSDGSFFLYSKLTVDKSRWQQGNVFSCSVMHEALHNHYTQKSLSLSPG
B15: A127 (antibody, human IgG1, kappa, L234A L235A, V domains shown)
VH: EVQLVESGGGLVQPGGSLRLSCAASGFTFSDYYMAWVRQAPGKGLEWVANINYDGSRTDLLESLKSRFTISRDNAKNSVYLQMNSLRAEDTAVYYCARDTSRGSYFDVWGAGTTVTVSS
VL: VVMTQTPLSLPVSLGDQASISCRSSQSIVHYNGNTYLEWYLQKPGQSPQLLIYKVSNRDSGVPDRFSGSGSGTDFTLKISRVEAEDLGVYYCFQGSHFPLTFGQGTKLEIKR
B16: A128 (antibody, human IgG1, kappa, L234A L235A)
light: VVMTQTPLSLPVSLGDQASISCRSSQSIVHYNGNTYLEWYLQKPGQSPQLLIYKVSNRDSGVPDRFSGSGSGTDFTLKISRVEAEDLGVYYCFQGSHFPLTFGQGTKLEIKRTVAAPSVFIFPPSDEQLKSGTASVVCLLNNFYPREAKVQWKVDNALQSGNSQESVTEQDSKDSTYSLSSTLTLSKADYEKHKVYACEVTHQGLSSPVTKSFNRGEC
heavy: not shown
notes: humanized from the 15 pM mouse clone; also called humanized antibody A128

This test concerns the target T1, Full-length human CTGF (human, UniProt P29279 27-349).
T1 construct: Corresponds to NCBI NP_001892.1 with the signal peptide omitted; purchased from R&D Systems; also called hCTGF full length; full length CTGF
T1 sequence: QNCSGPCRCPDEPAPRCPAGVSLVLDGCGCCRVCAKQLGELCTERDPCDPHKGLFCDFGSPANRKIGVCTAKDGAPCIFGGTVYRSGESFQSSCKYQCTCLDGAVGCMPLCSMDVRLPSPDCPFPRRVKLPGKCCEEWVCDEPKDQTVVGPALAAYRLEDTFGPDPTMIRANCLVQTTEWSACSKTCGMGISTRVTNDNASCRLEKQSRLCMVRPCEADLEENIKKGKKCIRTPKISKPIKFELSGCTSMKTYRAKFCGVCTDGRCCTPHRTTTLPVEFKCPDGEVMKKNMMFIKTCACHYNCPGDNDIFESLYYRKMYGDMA
Briefly: SPR, full length CTGF. A general note: Surface plasmon resonance follows binding to a sensor surface in real time, without labels.
One may read the Kd as the free concentration of one partner at which half of the binding sites on the other are occupied at equilibrium, for simple one-to-one binding. Lower therefore signals higher affinity. In the case of B1, the affinity, expressed as Kd, was 420 pM. In other words, the sub-nanomolar range.
In the case of B2 it was 430 pM.
The figure for B3 is 450 pM.
In the case of B4 it was 370 pM; in that of B5, 810 pM; in that of B6, 690 pM.
Regarding B7, the Kd was 810 pM.
The figure for B8 is 440 pM; for B9 it is 750 pM.
In the case of B10 it was 760 pM; in that of B11, 420 pM; in that of B12, 510 pM.
In the case of B13 it was 480 pM; in that of B14, 660 pM.
B15 came in with a dissociation constant Kd of 280 pM.
In the case of B16 it was 270 pM.
